The assay deals with Mab3862, antitoxin of the type 2 TA class of Mycobacterium abscessus (Mycobacterium abscessus (ATCC 19977)). The experiment in a line: crystal structure.

For orientation: stoichiometry N means the number of molecules, sites or subunits per partner or assembly.

The substance “Mab3862, antitoxin of the type 2 TA class of Mycobacterium abscessus (natural protein)” yielded a stoichiometry N of 2.

The values above are taken from doi:10.1101/2022.05.14.491971.
